The record followed here is patent publication US20260158160A1 (MACFARLANE BURNET INSTITUTE FOR MEDICAL RESEARCH AND PUBLIC …, published 2026).

Broadly, the EC50 is the concentration needed to bring the measured effect to its halfway point. Read a low EC50 as higher potency in that assay.

The target in assay [1] is T1, SARS-CoV-2 RBD-Ig (SARS-CoV-2; mouse, UniProt P0DTC2 319-541).
Assay [2] concerns the target SARS-CoV-2 spike protein on virus (CoV/Australia/VIC01/2020) (SARS-CoV-2, UniProt P0DTC2 14-1273). As to the kind of experiment: cell-based or functional assay.
Assay [3] deals with SARS-CoV-2 spike protein expressed on Ramos-S cells (SARS-CoV-2, UniProt P0DTC2 14-1273).
The target in assay [4] is T1, SARS-CoV-2 RBD-Ig. The experiment in a line: ELISA: ACE2-Fc titrated on immobilised RBD-Ig (A450), curve fit. For orientation: ELISA stands for enzyme-linked immunosorbent assay.

Changes are numbered by the printed parent chain. Values joined by “and” are separate entries in the source; they are usually repeats but may differ in a detail not shown here. Equal values may be shown once. Read-outs that look alike come from different tables or passages of the source.

B1: EflACE2-Fc-H429Y (Fc fusion)
chain: ETGSTIEEQAKYFLDKFNHEAEDLFYQSSLASWNYNTNITEENVQNMNNAGDKWSAFLKEQSTTAQMYPLQEIQNLTVKLQLQALQQNGSSVLSEDKSKRLNTILNTMSTIYSTGKVCNPDNPQECLLLEPGLNEIMANSLDYNERLWAWESWRSEVGKQLRPLYEEYVVLKNEMARANHYEDYGDYWRGDYEVNGVDGYDYSRGQLIEDVEHTFEEIKPLYEHLHAYVRAKLMNAYPSYISPIGCLPAHLLGDMWGRFWTNLYSLTVPFGQKPNIDVTDAMVDQAWDAQRIFKEAEKFFVSVGLPNMTQGFWEYSMLTDPGNVQKAVCHPTAWDLGKGDFRILMCTKVTMDDFLTAHHEMGHIQYDMAYAAQPFLLRNGANEGFHEAVGEIMSLSAATPKHLKSIGLLSPDFQEDNETEINFLLKQALTIVGTLPFTYMLEKWRWMVFKGEIPKDQWMKKWWEMKREIVGVVEPVPHDETYCDPASLFHVSNDYSFIRYYTRTLYQFQFQEALCQAAKHEGPLHKCDISNSTEAGQKLFNMLRLGKSEPWTLALENVVGAKNMNVRPLLNYFEPLFTWLKDQNKNSFVGWSTDWSPYADQSIKVRISLKSALGDRAYEWNDNEMYLFRSSVAYAMRQYFLKVKNQMILFGEEDVRVANLKPRISFNFFVTAPKNVSDIIPRTEVEKAIRMSRSRINDAFRLNDNSLEFLGIQPTLGPPNQPPVSGGGGSTHTCPPCPAPELLGGPSVFLFPPKPKDTLMISRTPEVTCVVVDVSHEDPEVKFNWYVDGVEVHNAKTKPREEQYNSTYRVVSVLTVLHQDWLNGKEYKCKVSNKALPAPIEKTISKAKGQPREPQVYTLPPSREEMTKNQVSLTCLVKGFYPSDIAVEWESNGQPENNYKTTPPVLDSDGSFFLYSKLTVDKSRWQQGNVFSCSVMYEALHNHYTQKSLSLSPGK
notes: also called EflACE2-Fc-H429Yoli; Yoli
As to B1, the concentration giving a half-maximal response (EC50) in assay [1] is 0.38 nM and 0.6 nM. Further, the “fold of neutralisation activity over unfused trACE2” value in assay [2] was more than 600 fold.

B2: EflACE2-Fc-H429F (Fc fusion)
chain: B1 chain with Y937F
notes: also called EflACE2-Fc F
In the case of B2, the EC50 in assay [3] worked out at 2.1 nM; in assay [4] it was 0.21 nM.
